The values below are quoted from earlier work in publication PMC3281059.

The series addresses actin monomer (UniProt P68133).

One may read the Kd as the free concentration of one partner at which half of the binding sites on the other are occupied at equilibrium, for simple one-to-one binding. On to WCA domain WCA (from UniProt O00401), for which the Kd is 600 nM.
